The target in assay [1] is MBP-sAnk1(29-155) (UniProt P16157). As to the kind of experiment: SPR. A general note: In SPR one partner is held on a chip, and binding of the other changes the refractive index at the surface.
The target in assay [2] is MBP-sAnk1(29-155) D111R (UniProt P16157). As to the kind of experiment: SPR.
The target of assay [3] is obscurin (UniProt Q5VST9). The note with it: cited from earlier work.

Here are results for 8 substances from PMC3367564.

A word on the Kd: it is a measure of binding affinity in units of concentration.

As to “GST-Obsc(6316-6436) E6327A (domain or fragment)”, the peak binding relative to wild type in assay [1] is 40 % of control. On the same count and under the same terms, to “GST-Obsc(6316-6436) E6329A (domain or fragment)” belongs 40 % of control. In the case of “GST-Obsc(6316-6436) K6337E (domain or fragment)”, in assay [2], the ratio of binding to sAnk1-D111R over binding to wild type sAnk1 is 1.7. In the case of “GST-Obsc(6316-6436) K6338A (domain or fragment)”, the ratio of binding to sAnk1-D111R over binding to wild type sAnk1 in assay [2] is 1.7. On the same count and under the same terms, to “GST-Obsc(6316-6436) K6338E (domain or fragment)” belongs 3.7. As to “GST-Obsc(6316-6436) with the two N-terminal glutamates changed to alanines (E6327A, E6329A) (domain or fragment)”, the peak binding relative to wild type in assay [1] was 10 % of control. Consider “GST-Obsc(6316-6436), wild type (domain or fragment)”, for which the ratio of binding to sAnk1-D111R over binding to wild type sAnk1 in assay [2] amounted to 1.7. On to small ankyrin 1 (from UniProt P16157), for which, in assay [3], the Kd is 130 nM.
